# Laboratory results published in US8440804B2, “Polypeptides having modulatory effects on cells” (Ecole Normale Superieure de Lyon, priority 2006, dated 2013).
# Experiments:
# MCF-7 cells = assay: Colony formation assay (cell proliferation assay, crystal violet); assay type: cell-based; conditions: MCF-7, continuous expression 2 weeks, compared to AptaLib and human thioredoxin
# Experimental: (§1) (B) Colony formation assays. Hela or MCF-7 cells were transfected with plasmids directing the stable expression of the Cdk inhibitor p21, a library of peptide aptamers from pBK1 (AptaLib), Human thioredoxin (HTRX), and peptide aptamers R7G44, R5G42, R5G52. The cells were cultured for two weeks and the colonies were stained with crystal violet.
# (§2) The inventors wished to establish the antiproliferative activity of these peptide aptamers using alternative cellular models and a non-retroviral vector to express individually each aptamer. They cloned the aptamer coding genes into a vector bearing a hygromycin selection marker. They also subcloned the pBK1 library into this vector, to create “AptaLib”. They continuously expressed the aptamers, the empty thioredoxin scaffold or AptaLib in Hela and MCF-7 cells for 2 weeks and they stained the cells that grew. […] These aptamers may originate from the remaining background of slowly proliferating cells during the seventh screening iteration, independently of the expressed aptamers. […] This could be due to the fact that the CMTMR assay is more sensitive in detecting modest antiproliferative effects than the colony formation assay or that some peptide aptamers somehow enhance the CMTMR labeling of their host cells.
# (§3) To stably express peptide aptamers in mammalian cells, the episomal eukaryotic expression vector pCEP4 that bears a CMV promoter and a hygromycin selection marker (InVitrogen) was used. Aptamer coding sequences were PCR amplified using the oligonucleotides
# (§4) that contained a stop codon. The PCR products were digested with NheI and NotI and ligated into NheI/NotI-cut pCEP4 to create pEA-aptamer plasmids. 3×10^5 cells/well were plated in 6-well plates and transfected 24 h after using Jet PEI (Qbiogen), 3.7 μg pEA-aptamer plasmids and 0.3 μg pEGFP-C1 (Clontech) to monitor transfection. Hygromycin (InVitrogen) was added at 200 μg/ml two days later and the cells were cultured for 2 weeks, renewing the medium twice a week. The cells were then rinsed in PBS and were fixed and stained by incubating 30 min in crystal violet (0.05% crystal violet, 20% ethanol, 0.37% formaldehyde). Excess crystal violet was removed by washing with water. In Vitro Phosphatase Assay
# Hela cells = assay: as above; assay type: cell-based; conditions: continuous expression 2 weeks, compared to AptaLib and human thioredoxin
# Experimental: as §1, §2, §3, §4
# CNA = assay: Yeast two-hybrid assay; assay type: binding, human; conditions: mating assay, LexA-aptamer fusions
# From the text: (A) Yeast two-hybrid mating assay. TB50α yeast were co-transformed with pSH18-34T (bearing a lacZ reporter gene) and plasmids directing the expression of LexA alone or in fusion with peptide aptamers R5G42, R7G44 or R5G52. MB210a yeast were transformed with the selected cDNA library plasmids directing the expression of CNAβ, CNAγ, and NS5ATP2 truncated proteins. To obtain negative controls, MB210a yeast were also transformed with the empty prey plasmid (pJG4-5) and with pJG4-5 directing the expression of Ras and FKBP12 prey proteins. To obtain a positive control, MB210a yeast were transformed with pJG4-5 directing the expression of RG22 peptide aptamer prey fusion protein that interacts with LexA in the context of most LexA fusion proteins.
# The inventors set out to map the R5G42 binding site on CNA. The CNA interacting clones selected in the yeast two-hybrid experiments corresponded to the carboxy-terminal regions of the beta and gamma isoforms, encompassing the calmodulin-binding domain and the auto-inhibitory domain (see FIG. 3B). […] The LexA-R5G52 bait protein may thus not be properly expressed and/or folded in this yeast two-hybrid setting.
# The inventors explored the ability of R5G42 mutants having a one amino acid change as compared to R5G42, to bind to CNA beta and gamma C-Terminal fragments (FIG. 3b) and to NS5A-TP2. To this end, they proceeded to yeast-two hybrid assays as in example 3. CNA beta and gamma C-Terminal fragments (FIG. 3b) and NS5A-TP2 were cloned in three different plasmids (pSH18-34, pJK103 and pRB18-40), which differed from each other in the level of sensitivity of their promoter to the bait/prey complex formation, pSH18-34 having the highest sensitivity and pRB18-40 having the lowest.
# The 5′ end of RH6 (upper case) matches part of the HA epitope tag and the 5′ ends of RH4, RH3 and RH7 (upper case) match the 5′ extremity of the ADH terminator. The PCR reactions was performed using pCMV-SPORT6-CnAβ as a template. CnAβCter Δ1, Δ2, CaM were constructed by combining oligonucleotides RH6/RH4, RH6/RH3, RH6/RH7, respectively. […]
# [1] = system: purified CNA (calcineurin); assay: In vitro calcineurin phosphatase assay (pNPP substrate); assay type: biochemical
# Experimental: (A) In vitro calcineurin phosphatase assay. Dephosphorylation of the model substrate pNPP by purified calcineurin was measured in presence of various amounts of purified calmodulin (CaM), GST-R5G42 or GST-R7G44 fusion proteins.
# The inventors next explored the ability of R5G42 to modulate the enzymatic activity of its target protein. To this end, they first performed an in vitro phosphatase assay using purified CNA and para-nitrophenylphosphate (pNPP) as a substrate.
# GST-aptamer fusion proteins were first produced as described above. For this experiment, GST-aptamer fusion proteins were eluted from glutathion sepharose beads using 20 mM reduced L-glutathione (Sigma), and the eluates were dialyzed overnight against a phosphatase buffer (50 mM Tris-HCl pH7.4, 0.1 mM CaCl2). The phosphatase activity of calcineurin was measured using pNPP (Sigma) as substrate, in a final volume of 100 μl. The sample solution contained 50 mM Tris-HCl (pH7.4), 0.1 mM CaCl2, 1 mM NiSO4, 0.15 mg/ml BSA (Sigma), 0.1 μM calcineurin (Upstate). Purified calmodulin (Upstate) and GST-aptamer fusion proteins were added at different concentrations (see figure legend). After a 15 min pre-incubation at 37° C., the reactions were started by adding 4.1 mM pNPP and the mixtures were incubated at 37° C. for 20 min. The nitrophenylate product was measured at 405 nm using an Envision plate reader (Perkin Elmer). The background level that was determined was subtracted using a mixture lacking calcineurin.
# [2] = system: purified CNA (bovine brain purified calcineurin); assay: In vitro binding assay (affinity capture on glutathione-sepharose, western blot); conditions: glutathione-sepharose beads, anti-calcineurin western blot
# From the text: (C) Affinity capture assay.
# The inventors performed two yeast two-hybrid screening experiments against a LexA-R5G42 bait protein, using a human testis and a human fcetal brain cDNA library. They obtained 29 and 42 reconfirmed clones, respectively. […] The inventors thus retained two candidates. The highest occurring clone, from both libraries, corresponded to the NS5A-TP2 protein, recently discovered through a systematic search for genes that are transactivated by the non-structural NS5A protein from hepatitis C virus (22). No biological knowledge is currently available for this protein. The other remaining target candidate was calcineurin A (CNA), for which two different isoforms (beta and gamma) were selected from the testes library (see FIG. 3A). To confirm the interaction between R5G42 and CNA, the inventors performed an in vitro binding assay between recombinant purified GST-aptamer fusion proteins, coupled to a glutathione-sepharose matrix, and purified CNA.
# In Vitro Binding Assay pVRV6-aptamer plasmids were first digested with EcoRI and XhoI and the fragments were ligated into EcoRI/XhoI-cut pGEX4T1. GST-aptamer fusions were expressed in a BL-21(DE3) E. coli strain. […] The samples were loaded onto a SDS-PAGE, transferred to nitrocellulose membrane, and calcineurin was detected by western-blotting using an anti-calcineurin pan A antibody (1/1000, Chemicon International). […]
molecule,measurement,setting,value
R7G44: peptide aptamer: variable region HQSTIGVAEF in human thioredoxin (SEQ ID 31); control without antiproliferative effect,inhibition of cell proliferation (colony formation),MCF-7 cells,did not exert any antiproliferative effect
same,inhibition of cell proliferation (colony formation),Hela cells,did not exert any antiproliferative effect
same,yeast two-hybrid interaction phenotype with CNA,CNA,did not show an interaction phenotype
"calmodulin [CaM, reference compound]",activation of CNA phosphatase activity,"[1]; addition of purified calmodulin, pNPP",required to activate CNA
"GST-R5G42: recombinant purified GST-aptamer fusion protein of R5G42 (protein, left off: a dimerising Fc or GST) MVKQIESKTAFQEALDAAGDKLVVVDFSATWCGPSAVTFAVCALGPCKMIKPFFHSLSEKYSNVIFLEVDVDDCQDVASECEVKCMPTFQFFKKGQKVGEFSGANKEKLEATINELV",capture of purified CNA by GST-aptamer solid phase,[2],readily captured CNA
same,CNA phosphatase activity in absence of CaM,"[1]; high concentrations of GST-aptamer, pNPP, 0.1 μM calcineurin","activated CNA phosphatase activity in absence of CaM, to a level comparable to that observed using CaM"
same,effect on CaM-activated CNA phosphatase activity,[1]; in presence of CaM (not shown),did not result in an inhibition or an exacerbation
